Data reported in article PMC10986557, “Inhibition of SARS-CoV-2 replication by a ssDNA aptamer targeting the nucleocapsid protein”.

Target: Nucleocapsid (N) protein (SARS-CoV-2 original strain, UniProt P0DTC9 1-419)
Assay: flow cytometry (bead-immobilized protein); 1x SB
Conditions: protein: recombinant; tags: His6 (pET28a); chain copies: 2

B1: N-Apt17 (ssDNA)
DNA: GCTGGATGTTCATGCTGGCAAAAGGTGTCACTCCATTCCTTAGGGGCACCGGAAGCATCTCTTTACTTTGACACATCCAGC
  binding result: binds
